For this experiment, the target named is CD16 on CD16-transfected BW cells (FcγRIIIA-transfected BW cell line) (UniProt P08637). The experiment can be described thus: FACS on BW-CD16 cells.
Sequence of UniProt P08637 (P08637 17-254 limits assumed): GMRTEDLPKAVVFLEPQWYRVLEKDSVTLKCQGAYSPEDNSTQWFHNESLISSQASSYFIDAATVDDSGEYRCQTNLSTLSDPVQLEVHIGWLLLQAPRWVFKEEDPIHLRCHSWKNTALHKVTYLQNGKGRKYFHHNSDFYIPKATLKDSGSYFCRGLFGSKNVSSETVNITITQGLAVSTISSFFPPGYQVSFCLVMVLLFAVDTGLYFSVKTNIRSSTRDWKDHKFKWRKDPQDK

For “rituximab (intact, undigested) (antibody)”, the binding percentage came to 99.8%.

Source of the values: patent publication US20190048076A1.
